Assay results from patent publication US20250282892A1 (BIOMUNEX PHARMACEUTICALS, published 2025).

B1: Patri-Matu-Fc (bispecific antibody, human IgG1, kappa)
heavy: not shown
light 1: not shown
light 2: DIQMTQSPSSLSASVGDRVTITCSASSSVTYMYWYQQKPGKAPKLLIYDTSNLASGVPSRFSGSGSGTDYTFTISSLQPEDIATYYCQQWSSHIFTFGQGTKVEIKRTVAAPSVFIFPPSDEQLKSGTASVTCLLNNFYPREAKVQWKVDNALQSGNSQESVTEQDSKDSTYSLVSTLTLSKADYEKHKVYACEVTHQGLSSPVTKSFNRGEC
notes: Tetravalent tandem Fab-Fc: external Fabs patritumab (anti-HER3), internal Fabs matuzumab (anti-EGFR); 2 heavy chains and 4 light chains; also called 3Patri-1Matu-Fc
B2: Matuzumab (antibody, V domains shown)
VH: QVQLVQSGAEVKKPGASVKVSCKASGYTFTSHWMHWVRQAPGQGLEWIGEFNPSNGRTNYNEKFKSKATMTVDTSTNTAYMELSSLRSEDTAVYYCASRDYDYAGRYFDYWGQGTLVTVSS
VL: DIQMTQSPSSLSASVGDRVTITCSASSSVTYMYWYQQKPGKAPKLLIYDTSNLASGVPSRFSGSGSGTDYTFTISSLQPEDIATYYCQQWSSHIFTFGQGTKVEIK
notes: Parental monoclonal antibody used as positive control; also called EMD72000; parental antibody (anti-EGFR)
B3: BMX003-010 (humanized Patri-Cetu-Fc) (bispecific antibody, human IgG1, kappa)
heavy: not shown
light 1: not shown
light 2: EIVLTQSPDFQSVTPKEKVTITCRASQSIGTNIHWYQQKPDQSPKLLIKYASESISGVPSRFSGSGSGTDFTLTINSLEAEDAATYYCQQNNNWPTTFGAGTKLEIKRTVAAPSVFIFPPSDEQLKSGTASVTCLLNNFYPREAKVQWKVDNALQSGNSQESVTEQDSKDSTYSLVSTLTLSKADYEKHKVYACEVTHQGLSSPVTKSFNRGEC
B4: BMX003-011 (humanized Patri-Cetu-Fc modified) (bispecific antibody, human IgG1, kappa)
heavy: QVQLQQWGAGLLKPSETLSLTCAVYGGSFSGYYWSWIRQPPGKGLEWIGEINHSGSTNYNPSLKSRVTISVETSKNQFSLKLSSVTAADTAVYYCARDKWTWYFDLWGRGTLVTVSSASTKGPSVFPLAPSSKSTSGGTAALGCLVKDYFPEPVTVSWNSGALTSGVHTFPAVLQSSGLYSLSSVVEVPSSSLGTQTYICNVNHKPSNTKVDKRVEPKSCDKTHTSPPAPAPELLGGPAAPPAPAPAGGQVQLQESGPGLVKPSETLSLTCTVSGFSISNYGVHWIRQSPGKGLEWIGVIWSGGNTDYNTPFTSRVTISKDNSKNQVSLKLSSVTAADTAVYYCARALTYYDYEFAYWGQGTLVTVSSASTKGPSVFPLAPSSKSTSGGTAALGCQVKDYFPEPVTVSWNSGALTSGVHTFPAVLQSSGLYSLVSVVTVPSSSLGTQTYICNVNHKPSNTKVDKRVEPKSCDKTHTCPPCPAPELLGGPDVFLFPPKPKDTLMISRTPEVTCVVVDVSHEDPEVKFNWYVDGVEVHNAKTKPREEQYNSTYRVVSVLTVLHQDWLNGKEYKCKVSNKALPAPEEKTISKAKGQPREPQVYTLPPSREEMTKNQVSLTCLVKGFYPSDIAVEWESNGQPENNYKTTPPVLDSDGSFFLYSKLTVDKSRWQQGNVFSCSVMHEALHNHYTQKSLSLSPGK
light 1: not shown
light 2: B3 light 2
notes: Identical to BMX003-010 except for 2 mutations in the Fc domain (S239D and I332E, printed '1332E')

Legend:
EGFR His tag = molecular target: T1, EGFR His tag (UniProt P00533 25-645); assay: direct ELISA, His-tagged antigen coated, anti-human Fc-HRP detection
T1 construct: Recombinant His-tagged antigen; not shown: His tag

HER3 His tag = molecular target: T2, HER3 His tag (UniProt P21860 20-643); assay: as above
T2 construct: Recombinant His-tagged antigen; not shown: His tag

[1] = molecular target: T3, HER3 protein expressed on the cell surface of SW-1990 cells (UniProt P21860 20-1342, limits assumed); assay: flow cytometry on SW-1990 cells (FIG. 10)
T3 construct: whole, on cells; SW-1990 cells carry HER3 and EGFR together; the flow cytometry signal is not split between them

[2] = molecular target: T4, EGFR protein expressed on the cell surface of SW-1990 cells (UniProt P00533 25-1210, limits assumed); assay: flow cytometry on SW-1990 cells (FIG. 10)
T4 construct: whole, on cells; SW-1990 cells carry HER3 and EGFR together; the flow cytometry signal is not split between them

| Binder | EC50 (EGFR His tag) | EC50 (HER3 His tag) | binding result [1] | binding result [2] |
| --- | --- | --- | --- | --- |
| B1 | 0.39 nM | 0.16 nM | – | – |
| B2 | 0.09 nM | – | – | – |
| B3 | – | – | binds | binds |
| B4 | – | – | binds | binds |
